Experimental findings from the supplement of paper PMC10724198 are described below.

± gives the standard deviation of the averaged measurements.

The data set relates to Saccharomyces cerevisiae. Description: protein stability index of tFT-peptide fusion (C-terminal peptide) (PSI (0-1 scale)); higher = more stable (slower turnover). Particulars: temperature: 30 C. As to the method:
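MPS profiling in S. cerevisiae of the yeast C-terminome library: the last 12 aa of each annotated ORF are fused to the C-terminus of a sfGFP-mCherry timer, after a GGGS linker. Cells are FACS-sorted into 8 mCherry/sfGFP bins and deep-sequenced. PSI runs from 0 (unstable) to 1 (stable); wild type and das1Δ backgrounds, two technical replicates each.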

The mark [1] stands for this setting: genetic background: das1 deletion.

With EFDLADDRRYDI [TPO5 C-terminal 12 aa], the protein stability index is 0.705 ± 0.03 under setting [1] and 0.682 ± 0.011 (genetic background: wild type).

EGIFPANYVELV [LSB3 C-terminal 12 aa] gave a protein stability index under setting [1] of 0.7016 ± 0.0045 and a protein stability index (genetic background: wild type) of 0.678 ± 0.037.

Consider EGPVTIILDSDQ [DTD1 C-terminal 12 aa], for which the protein stability index is, setting by setting: under setting [1], 0.701 ± 0.0098; (genetic background: wild type) 0.7015 ± 0.0042.

In the case of EKKFKEILNIQW [PET112 C-terminal 12 aa], the protein stability index is 0.709 ± 0.025 under setting [1] and 0.722 ± 0.01 (genetic background: wild type).

On to EKKYSNNTNAIQ [CTI6 C-terminal 12 aa], for which the protein stability index turned out to be 0.68042 ± 0.00045 under setting [1] and 0.657 ± 0.024 (genetic background: wild type).

For the sequence EKPEGKDTKTEE [CMK1 C-terminal 12 aa], the protein stability index was 0.685 ± 0.022 under setting [1] and 0.684 ± 0.051 (genetic background: wild type).

Take EKQSSTASEKAA [THI7 C-terminal 12 aa]: the protein stability index reads like this: under setting [1], 0.6813 ± 0.0064; (genetic background: wild type) 0.704 ± 0.029.

With EKRLQKEIKSIE [IDP1 C-terminal 12 aa], the protein stability index is, setting by setting: under setting [1], 0.734 ± 0.012; (genetic background: wild type) 0.673 ± 0.06.

Turning to ELDEIANSLENL [TPM2 C-terminal 12 aa], the protein stability index by setting is: under setting [1], 0.694 ± 0.019; (genetic background: wild type) 0.683 ± 0.01.

ELKRKDALSKKI [COA2 C-terminal 12 aa] gave a protein stability index under setting [1] of 0.688 ± 0.048 and a protein stability index (genetic background: wild type) of 0.75 ± 0.017.

As to ELLQSFSLVLTL [YKL153W C-terminal 12 aa], the protein stability index is, setting by setting: under setting [1], 0.64297 ± 0.00021; (genetic background: wild type) 0.632 ± 0.024.

As for ELPAQKSTVISE [GEP7 C-terminal 12 aa], the protein stability index by setting is: under setting [1], 0.733 ± 0.039; (genetic background: wild type) 0.702 ± 0.039.

On to ELQDALNTELLF [VAC17 C-terminal 12 aa], for which the protein stability index by setting is: under setting [1], 0.7157 ± 0.0042; (genetic background: wild type) 0.699 ± 0.0099.

As for ELTFDVKLVSMK [FPR4 C-terminal 12 aa], the protein stability index worked out at 0.686 ± 0.0071 under setting [1] and 0.687 ± 0.034 (genetic background: wild type).

Turning to ENLRLKLKNFLR [MSH5 C-terminal 12 aa], the protein stability index reads like this: under setting [1], 0.683 ± 0.0095; (genetic background: wild type) 0.688 ± 0.022.

On to ENRTMFLSKGKS [YPR172W C-terminal 12 aa], for which the protein stability index was 0.701 ± 0.024 under setting [1] and 0.667 ± 0.016 (genetic background: wild type).

Turning to EPKYVDEDDWSD [CEG1 C-terminal 12 aa], the protein stability index runs as follows: under setting [1], 0.69393 ± 0.00048; (genetic background: wild type) 0.68 ± 0.02.

For EQFTRDFGQEGN [VPS4 C-terminal 12 aa], the protein stability index is, setting by setting: under setting [1], 0.7187 ± 0.0015; (genetic background: wild type) 0.671 ± 0.016.

Take EQLGHASKRHKP [RPP1 C-terminal 12 aa]: the protein stability index under setting [1] worked out at 0.694 ± 0.011 and the protein stability index (genetic background: wild type) turned out to be 0.689 ± 0.0075.

In the case of ERGMYRYYSLKA [LUG1 C-terminal 12 aa], the protein stability index under setting [1] is 0.623 ± 0.028 and the protein stability index (genetic background: wild type) turned out to be 0.621 ± 0.015.

For ERLRFYKDTFTL [RRI1 C-terminal 12 aa], the protein stability index reads like this: under setting [1], 0.726 ± 0.0089; (genetic background: wild type) 0.653 ± 0.011.

Sequence ERRLSDLQQYHI [TMA10 C-terminal 12 aa] showed a protein stability index under setting [1] of 0.6982 ± 0.0017 and a protein stability index (genetic background: wild type) of 0.683 ± 0.02.

In the case of ERVKIGVQFYEE [RTG2 C-terminal 12 aa], the protein stability index reads like this: under setting [1], 0.708 ± 0.013; (genetic background: wild type) 0.736 ± 0.042.

ESDDDMGFGLFD [RPP0 C-terminal 12 aa]: the protein stability index under setting [1] turned out to be 0.7176 ± 0.002 and the protein stability index (genetic background: wild type) is 0.717 ± 0.016.

As to ESHQDKTEEDIH [OKP1 C-terminal 12 aa], the protein stability index runs as follows: under setting [1], 0.69113 ± 0.00011; (genetic background: wild type) 0.726 ± 0.035.

On to ESISYLFKNYPL [PRS3 C-terminal 12 aa], for which the protein stability index reads like this: under setting [1], 0.717 ± 0.015; (genetic background: wild type) 0.6937 ± 0.0036.

ESTTDAESKGSK [MRPL11 C-terminal 12 aa]: the protein stability index reads like this: under setting [1], 0.676 ± 0.015; (genetic background: wild type) 0.706 ± 0.11.

The sequence ETIWTEWHNLKK [DIG2 C-terminal 12 aa] had a protein stability index under setting [1] of 0.726 ± 0.059 and a protein stability index (genetic background: wild type) of 0.686 ± 0.0099.

As for “ETRASCLLSRAF [YJL052C-A C-terminal 12 aa]”, the protein stability index reads like this: under setting [1], 0.6962 ± 0.0034; (genetic background: wild type) 0.698 ± 0.015.

As for EVYLQAIDLIDC [PIR3 C-terminal 12 aa], the protein stability index by setting is: under setting [1], 0.6774 ± 0.0063; (genetic background: wild type) 0.6614 ± 0.005.

With EWAEENADNVEW [RPS0A C-terminal 12 aa], the protein stability index runs as follows: under setting [1], 0.7363 ± 0.0068; (genetic background: wild type) 0.728 ± 0.028.

For the sequence EWFYEKFLGNIF [DIP5 C-terminal 12 aa], the protein stability index by setting is: under setting [1], 0.747 ± 0.013; (genetic background: wild type) 0.702 ± 0.014.

In the case of EWVVPEHMLGPK [FUM1 C-terminal 12 aa], the protein stability index turned out to be 0.741 ± 0.0091 under setting [1] and 0.739 ± 0.041 (genetic background: wild type).

Consider EYGGYGEYGNGS [RTG1 C-terminal 12 aa], for which the protein stability index runs as follows: under setting [1], 0.6949 ± 0.0018; (genetic background: wild type) 0.674 ± 0.0096.

The sequence EYTDFMSWMQDN [YER186C C-terminal 12 aa] came in with a protein stability index under setting [1] of 0.74 ± 0.01 and a protein stability index (genetic background: wild type) of 0.646 ± 0.15.

Take “FAAPIKPSTRAG [YLR347W-A C-terminal 12 aa]”: the protein stability index by setting is: under setting [1], 0.6876 ± 0.0016; (genetic background: wild type) 0.71 ± 0.0086.

The sequence FAQNTNKDVELN [NGG1 C-terminal 12 aa] displayed a protein stability index under setting [1] of 0.682 ± 0.028 and a protein stability index (genetic background: wild type) of 0.666 ± 0.046.

Take FASNKKVTASLR [AZR1 C-terminal 12 aa]: the protein stability index under setting [1] worked out at 0.696 ± 0.013 and the protein stability index (genetic background: wild type) amounted to 0.6868 ± 0.00086.

For FDELVRKYDTSN [SEC28 C-terminal 12 aa], the protein stability index under setting [1] turned out to be 0.718 ± 0.017 and the protein stability index (genetic background: wild type) amounted to 0.665 ± 0.0076.

Turning to FEFEFFESCYNA [PET18 C-terminal 12 aa], the protein stability index reads like this: under setting [1], 0.744 ± 0.019; (genetic background: wild type) 0.744 ± 0.038.

FGIWNTDMSVWS [YBL081W C-terminal 12 aa]: the protein stability index by setting is: under setting [1], 0.699 ± 0.017; (genetic background: wild type) 0.7253 ± 0.0045.

As for FGKYLPLNYPSE [ASG1 C-terminal 12 aa], the protein stability index reads like this: under setting [1], 0.7167 ± 0.0015; (genetic background: wild type) 0.671 ± 0.015.

FGNDMVINFETD [UTP22 C-terminal 12 aa]: the protein stability index runs as follows: under setting [1], 0.7438 ± 0.0026; (genetic background: wild type) 0.731 ± 0.12.

As for FHLNAKTRESEI [YDL162C C-terminal 12 aa], the protein stability index by setting is: under setting [1], 0.702 ± 0.012; (genetic background: wild type) 0.67952 ± 0.00014.

For the sequence FIHDVFFVYFRF [YDL094C C-terminal 12 aa], the protein stability index was 0.176 ± 0.0076 under setting [1] and 0.17 ± 0.006 (genetic background: wild type).

For the sequence FIKLSLASSFSN [ISF1 C-terminal 12 aa], the protein stability index worked out at 0.7094 ± 0.0028 under setting [1] and 0.661 ± 0.022 (genetic background: wild type).

As for FINKIYHQKVNL [TMN3 C-terminal 12 aa], the protein stability index is, setting by setting: under setting [1], 0.707 ± 0.0078; (genetic background: wild type) 0.781 ± 0.004.

On to FKAKFRKVKINA [YKR015C C-terminal 12 aa], for which the protein stability index is, setting by setting: under setting [1], 0.6339 ± 0.0053; (genetic background: wild type) 0.134 ± 0.0025.

Regarding FKIFCNCIQSLA [YPL199C C-terminal 12 aa], the protein stability index by setting is: under setting [1], 0.341 ± 0.0075; (genetic background: wild type) 0.323 ± 0.009.

In the case of “FKSTPIIYSNVI [YER006C-A C-terminal 12 aa]”, the protein stability index by setting is: under setting [1], 0.724 ± 0.027; (genetic background: wild type) 0.642 ± 0.0074.

For “FLEIVVPCHCTT [YJL077W-A C-terminal 12 aa]”, the protein stability index was 0.539 ± 0.0037 under setting [1] and 0.56 ± 0.021 (genetic background: wild type).

“FLIWRKKVSRNK [YOR329W-A C-terminal 12 aa]”: the protein stability index was 0.73 ± 0.054 under setting [1] and 0.727 ± 0.11 (genetic background: wild type).

For the sequence FLNIENPENQSE [RCO1 C-terminal 12 aa], the protein stability index is, setting by setting: under setting [1], 0.687 ± 0.01; (genetic background: wild type) 0.674 ± 0.018.

For the sequence FLSMTYASLVNK [YLR294C C-terminal 12 aa], the protein stability index under setting [1] came to 0.713 ± 0.022 and the protein stability index (genetic background: wild type) was 0.706 ± 0.062.

As for FLVLKIIKALLW [MTC4 C-terminal 12 aa], the protein stability index by setting is: under setting [1], 0.526 ± 0.013; (genetic background: wild type) 0.523 ± 0.026.

For the sequence FRGKLFLDSITD [MLC2 C-terminal 12 aa], the protein stability index runs as follows: under setting [1], 0.724 ± 0.0085; (genetic background: wild type) 0.73 ± 0.034.

For FRNYRGHYRGRK [SGS1 C-terminal 12 aa], the protein stability index runs as follows: under setting [1], 0.705 ± 0.03; (genetic background: wild type) 0.685 ± 0.039.

“FSALVLRGVRGE [YBR196C-B C-terminal 12 aa]”: the protein stability index by setting is: under setting [1], 0.698 ± 0.014; (genetic background: wild type) 0.6769 ± 0.0067.

For FSDFLDSNRITQ [LDB19 C-terminal 12 aa], the protein stability index by setting is: under setting [1], 0.72756 ± 0.00057; (genetic background: wild type) 0.723 ± 0.017.

Turning to FSDWKNNNGPHK [IBA57 C-terminal 12 aa], the protein stability index was determined as 0.701 ± 0.02 under setting [1] and 0.71 ± 0.062 (genetic background: wild type).

FSTIDGSIKDIK [FDO1 C-terminal 12 aa]: the protein stability index by setting is: under setting [1], 0.668 ± 0.023; (genetic background: wild type) 0.6865 ± 0.0054.

With FTGGDILPPEFN [SPS18 C-terminal 12 aa], the protein stability index under setting [1] stood at 0.7639 ± 0.0048 and the protein stability index (genetic background: wild type) is 0.739 ± 0.015.

Regarding FTHFTSSKDRKD [SIT1 C-terminal 12 aa], the protein stability index was determined as 0.711 ± 0.026 under setting [1] and 0.699 ± 0.021 (genetic background: wild type).

On to FVAKEIADDSKK [TIM12 C-terminal 12 aa], for which the protein stability index came out at 0.684 ± 0.016 under setting [1] and 0.709 ± 0.03 (genetic background: wild type).

Regarding “GAAVAAGVAFLF [YDR524C-B C-terminal 12 aa]”, the protein stability index came out at 0.717 ± 0.018 under setting [1] and 0.717 ± 0.044 (genetic background: wild type).

As to GAAVRLTGSDRV [RPN7 C-terminal 12 aa], the protein stability index reads like this: under setting [1], 0.685 ± 0.007; (genetic background: wild type) 0.679 ± 0.035.

In the case of GAMSEGKTGQLN [YLR036C C-terminal 12 aa], the protein stability index was 0.699 ± 0.02 under setting [1] and 0.6988 ± 0.0014 (genetic background: wild type).
